Experimental data taken from patent US20230293673A1 (LA JOLLA INSTITUTE FOR IMMUNOLOGY, published 2023).

Molecular target: T1, gH ectodomain, FLAG-tagged and lacking its transmembrane anchor (gHecto^F_TBopt) (human cytomegalovirus (HCMV) strain TB40, UniProt P12824 24-709)
T1 sequence: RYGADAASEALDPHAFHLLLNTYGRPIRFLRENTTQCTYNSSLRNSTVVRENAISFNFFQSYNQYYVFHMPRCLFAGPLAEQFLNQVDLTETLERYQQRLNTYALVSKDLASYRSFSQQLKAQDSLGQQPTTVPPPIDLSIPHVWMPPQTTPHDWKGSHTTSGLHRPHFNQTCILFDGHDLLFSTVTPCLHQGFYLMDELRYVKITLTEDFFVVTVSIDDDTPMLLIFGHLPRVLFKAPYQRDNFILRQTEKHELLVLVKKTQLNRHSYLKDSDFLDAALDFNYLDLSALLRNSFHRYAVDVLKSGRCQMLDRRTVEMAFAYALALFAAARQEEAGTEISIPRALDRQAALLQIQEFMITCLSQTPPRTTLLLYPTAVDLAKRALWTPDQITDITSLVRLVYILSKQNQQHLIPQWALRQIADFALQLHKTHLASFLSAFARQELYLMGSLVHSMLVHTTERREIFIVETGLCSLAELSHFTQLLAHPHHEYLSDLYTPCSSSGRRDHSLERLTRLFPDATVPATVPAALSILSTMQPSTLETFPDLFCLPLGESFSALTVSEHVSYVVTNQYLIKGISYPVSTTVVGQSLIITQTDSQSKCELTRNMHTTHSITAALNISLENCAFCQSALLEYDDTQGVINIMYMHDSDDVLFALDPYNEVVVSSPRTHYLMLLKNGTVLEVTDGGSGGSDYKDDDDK
Test: His-tag purification from Expi293F supernatant after co-expression, Western blot (FIG. 2B)

B1: octahistidine-tagged UL141 ectodomain (UL141ecto_3C His) (other)
chain: DIAEKMWAENYETTSPAPVLVAEGEQVTIPCTVMTHSWPMVSIRARFCRSHDGSDELILDAVKGHRLMNGLQYRLPYATWNFSQLHLGQIFSLTFNVSTDTAGMYECVLRNYSHGLIMQRFVILTQLETLSRPDEPCCTPALGRYSLGDQIWSPTPWRLRNHDCGMYRGFQRNYFYIGRADAEDCWKPACPDEEPDRCWTVIQRYRLPGDCYRSQPHPPKFLPVTPAPPADIDTGMSPWATR
notes: extracellular domain; not shown: C-terminal '3C' site and octahistidine tag
- binding result: binds
